Data published in US20240270826A1 (NATIONAL RESEARCH COUNCIL OF CANADA, published 2024).
Several values for one entry are separate records, joined by “and”; a condition that tells them apart may be missing. Equal entries are not always repeated. Where two headings read alike, the source gives them in different places.

How the values were obtained:
[1] = molecular target: S1-Fc (SARS-CoV-2 S1 aa16-685, Wuhan, human IgG1 Fc) (SARS-CoV-2 (Wuhan); human, UniProt P0DTC2 16-685)
[2] = molecular target: T1, SARS-CoV-2 spike protein S on live virus, Wuhan (strain SARS-CoV-2/Canada/VIDO-01/2020) (SARS-CoV-2 (Wuhan), UniProt P0DTC2 14-1273); experiment: cell-based or functional assay
[3] = molecular target: T2, Human SARS-CoV-2_Wuhan S (SmT1) (SARS-CoV-2 (Wuhan), UniProt P0DTC2 14-1208); experiment: flow cytometry SVNA, VHH vs biotin-S binding to Vero E6 ACE2
[4] = molecular target: Human SARS-CoV-2_Wuhan S (SmT1) (SARS-CoV-2 (Wuhan), UniProt P0DTC2 14-1208); experiment: tandem SPR, immobilized S, orientation 1: VHH alone
[5] = molecular target: T3, SARS-CoV-2 S2 (aa686-1208) (Wuhan) (SARS-CoV-2 Wuhan, UniProt P0DTC2 686-1208); experiment: SPR single-cycle kinetics, VHH over immobilized S2 [cont.]
T3 construct: NRC; FLAG, 6xHis tags

[6] = molecular target: T1, SARS-CoV-2 spike protein S on live …; experiment: cell-based or functional assay; remark: listed apart in the source
[7] = molecular target: T2, Human SARS-CoV-2_Wuhan S (SmT1); experiment: flow cytometry SVNA, VHH-Fc vs biotin-S binding to Vero E6 ACE2
[8] = molecular target: T2, Human SARS-CoV-2_Wuhan S (SmT1); experiment: sandwich ELISA: biotin NRCoV2-02 VHH capture, antigen titrated, VHH-Fc detector
[9] = molecular target: T4, SARS-CoV-2 S1-RBD (Wuhan) (SARS-CoV-2 (Wuhan), UniProt P0DTC2 319-541); experiment: as above
T4 construct: domain: S1-RBD

[10] = molecular target: T5, SARS-CoV-2 S1 (aa16-685) (Wuhan) (SARS-CoV-2 (Wuhan), UniProt P0DTC2 16-685); experiment: as above
[11] = molecular target: T2, Human SARS-CoV-2_Wuhan S (SmT1); experiment: as above; remark: listed apart in the source
[12] = molecular target: T4, SARS-CoV-2 S1-RBD (Wuhan); experiment: as above; remark: listed apart in the source
[13] = molecular target: T5, SARS-CoV-2 S1 (aa16-685) (Wuhan); experiment: as above; remark: listed apart in the source
[14] = molecular target: T6, SARS-CoV-2 spike trimer S (Wuhan, SmT1) (SARS-CoV-2 Wuhan); experiment: SPR, antigen on chip
T6 construct: extracellular domain

[15] = molecular target: T7, SARS-CoV-2 S1 (aa16-685) (Wuhan) (SARS-CoV-2 Wuhan, UniProt P0DTC2 16-685); experiment: SPR, antigen on chip
T7 construct: NRC; FLAG, 6xHis tags

[16] = molecular target: T8, SARS-CoV-2 S1-RBD fused to human Fc (S1-RBD-Fc) (SARS-CoV-2 Wuhan; human); experiment: SPR, antigen on chip
[17] = molecular target: T6, SARS-CoV-2 spike trimer S (Wuhan, SmT1); experiment: flow cytometry, inhibition of S binding to ACE2 on Vero E6 cells, monomeric VHH
[18] = molecular target: T6, SARS-CoV-2 spike trimer S (Wuhan, SmT1); experiment: SPR, antigen on chip; remark: listed apart in the source
[19] = molecular target: T7, SARS-CoV-2 S1 (aa16-685) (Wuhan); experiment: SPR, antigen on chip; remark: listed apart in the source
[20] = molecular target: T3, SARS-CoV-2 S2 (aa686-1208) (Wuhan); experiment: SPR, antigen on chip
[21] = molecular target: T8, SARS-CoV-2 S1-RBD fused to human Fc …; experiment: SPR, antigen on chip; remark: listed apart in the source
[22] = molecular target: SARS-CoV-2 RBD (aa319-541) (Wuhan), monomeric (SARS-CoV-2 Wuhan, UniProt P0DTC2 319-541); experiment: SPR, monomeric RBD over captured VHH-Fc

B1: NRCoV2-02 VHH (VHH)
VHH: EVQLVESGGGLVQAGGSLRLSCAASGFTFSNYAMNWVRQAPGKGLEWVSGISGRGDDTRYADSVKGRFTISRDNAKNTLFLQMRSLRPEDTGVYRCTKGPDLYYFGSGYSDRGQGTQVTVSS
[1]
  EC50: 0.2 nM
[2]
  MN100: 1.25 nM
[3]
  IC50: 5.1 nM
  IC99: 15.5 nM
  Imax %: 100%

B2: NRCoV2-02 VHH (VHH)
VHH: EVQLVESGGGLVQAGGSLRLSCAASGFTFSNYAMNWVRQAPGKGLEWVSGISGRGDDTRYADSVKGRFTISRDNAKNTLFLQMRSLRPEDTGVYRCTKGPDLYYFGSGYSDRGQGTQVTVSS
[4]
  End 1st inj (RU): 33 RU
[5]
  binding result: no binding (tested: 10 nM)

B3: NRCoV2-11 VHH-Fc (Fc fusion)
chain: EVQLVSSGGGLVQPGGSLRLSCAASGSSLDSYSVSWFRQAPGKEREWISFISRYYSSTYYTDSVKGRFTTSRDGDQKTVHLQMNSLKPEDTAVYYCAARSRDFSSPFSATDTYTSWGQGTQVTVSS
notes: bivalent VHH-Fc
[6]
  LVNA IC50: 9.9 nM
[7]
  IC50: 9.7 nM
  IC99: 99.8 nM
  Imax %: 63%
[8]
  SC50: 20 ng/mL
[9]
  SC50: 0.8 ng/mL
[10]
  SC50: 6 ng/mL
[11]
  Limit of detection: 1.4 ng/mL
[12]
  Limit of detection: 0.08 ng/mL
[13]
  Limit of detection: 0.46 ng/mL

B4: NRCoV2-11 VHH (VHH)
VHH: EVQLVSSGGGLVQPGGSLRLSCAASGSSLDSYSVSWFRQAPGKEREWISFISRYYSSTYYTDSVKGRFTTSRDGDQKTVHLQMNSLKPEDTAVYYCAARSRDFSSPFSATDTYTSWGQGTQVTVSS
[14]
  Kd: 0.0391 nM
  koff: 4.73e-05 s⁻¹
  kon: 1.21e+06 M⁻¹ s⁻¹
[15]
  Kd: 0.167 nM
  koff: 0.00018 s⁻¹
  kon: 1.08e+06 M⁻¹ s⁻¹
[16]
  Kd: 0.253 nM
  koff: 0.000226 s⁻¹
  kon: 892000 M⁻¹ s⁻¹
[17]
  IC50: 16.8 nM

B5: NRCoV2-11 VHH (VHH)
VHH: EVQLVSSGGGLVQPGGSLRLSCAASGSSLDSYSVSWFRQAPGKEREWISFISRYYSSTYYTDSVKGRFTTSRDGDQKTVHLQMNSLKPEDTAVYYCAARSRDFSSPFSATDTYTSWGQGTQVTVSS
[1]
  EC50: 0.2 nM

B6: NRCoV2-SR02 VHH-Fc (Fc fusion)
chain: EVQLVDSGGGLVQAGGSLRLSCTASEFTLNYYSIGWFRQSPGKEREGVSCIRYSGGGIDYADSVKGRFTISRDNAKNTVYLTMNSLKPEDTAVYYCAADRLYSRACPTAGGRNYWGQGTQVTVSS
notes: bivalent VHH-Fc
[2]
  MN100: 6.25 nM
[6]
  LVNA IC50: 14.1 nM
[7]
  IC50: 5.8 nM
  IC99: 49.8 nM
  Imax %: 53%

B7: NRCoV2-MRed04 VHH (VHH)
VHH: EVQLVESGGGLVQPGRSLRLSCAASGNSFSISTMGWFRQAPGKERELVASIWSDTTTSYADSVKGRFTISTDNTRTKVYLQMSSLNPEDTAVYYCAADRGFVVRGQYDYWGQGTQVTVSS
[18]
  Kd: 1.09 nM
  koff: 0.0015 s⁻¹
  kon: 1.39e+06 M⁻¹ s⁻¹
[19]
  Kd: 1.68 nM
  koff: 0.00183 s⁻¹
  kon: 1.09e+06 M⁻¹ s⁻¹
[20]
  binding result: no binding
[21]
  Kd: 2.06 nM
  koff: 0.00176 s⁻¹
  kon: 855000 M⁻¹ s⁻¹

B8: NRCoV2-MRed05 VHH-Fc (Fc fusion)
chain: EVQLVESGGGLVQPGGSLRLSCAASGFTLDYYAIGWFRQAPGKEREGVSCISSSDGSTLYADSVKGRFTISRDNAKNTVYLQMNSLKPEDTAVYYCATGPQAYYSGSYYFQCPQAGMDYWGKGTQVTVSS
notes: bivalent
[22]
  Kd: 0.763 nM
  koff: 0.000496 s⁻¹
  kon: 650000 M⁻¹ s⁻¹

B9: NRCoV2-SR03 VHH (VHH)
VHH: AVQLVDSGGGLVQAGGSLRLSCAASGSIFSNNHMGWYRQAPGKQRELVAAISSGGKTNYADFAKGRFTISRDNAKNMVYLQMNSLKPEDTAVYYCNRGGWEYRSSYYIMGPHWGQGTQVTVSS
[4]
  End 1st inj (RU): 18.5 RU
[5]
  binding result: no binding (tested: 20 nM)

B10: NRCoV2-04 VHH-Fc (Fc fusion)
chain: AVQLVDSGGGLVQPGGSLRLSCAASGSPFSNVVMAWYRQAPGKQRERVAFISGGGIADYIMSVKGRFTISRDNAKNTVYLQMNSLKPEDTAVYYCWSSYESTWGQGTQVTVSS
notes: bivalent VHH-Fc
[2]
  MN100: 1.25 nM
[6]
  LVNA IC50: 1.65 nM
[7]
  IC50: 11.7 nM
  IC99: 420 nM
  Imax %: 51%
[8]
  SC50: 39 ng/mL
[9]
  SC50: 3.3 ng/mL
[10]
  SC50: 25 ng/mL
[11]
  Limit of detection: 4.1 ng/mL
[12]
  Limit of detection: 0.46 ng/mL
[13]
  Limit of detection: 4.12 ng/mL

B11: NRCoV2-07 VHH-Fc (Fc fusion)
chain: QVQLVQSGGGLVQPGGSLRLSCAASGVTLDYYAIGWFRQAPGKEREAVSCISSNGRRNHYVASVRGRFTISRDNAKSTVYLQMNSLKPEDTAVYYCAAVQDVHGDNYYCTSPNEYNVWGQGTQVTVSS
notes: bivalent VHH-Fc
[2]
  MN100: 1.25 nM
[6]
  LVNA IC50: 6.15 nM
[7]
  IC50: 6.8 nM
  IC99: 98.9 nM
  Imax %: 89%
[8]
  SC50: 18 ng/mL
[9]
  SC50: 0.7 ng/mL
[10]
  SC50: 5 ng/mL
[11]
  Limit of detection: 1.4 ng/mL
[12]
  Limit of detection: 0.08 ng/mL
[13]
  Limit of detection: 0.46 ng/mL

B12: NRCoV2-07 VHH (VHH)
VHH: QVQLVQSGGGLVQPGGSLRLSCAASGVTLDYYAIGWFRQAPGKEREAVSCISSNGRRNHYVASVRGRFTISRDNAKSTVYLQMNSLKPEDTAVYYCAAVQDVHGDNYYCTSPNEYNVWGQGTQVTVSS
[1]
  EC50: 1.1 nM and 1 nM
[3]
  IC50: 7.5 nM
  IC99: 65.3 nM
  Imax %: 86%

B13: NRCoV2-SR01 VHH-Fc (Fc fusion)
chain: EVQLVQSGGGSVQAGGSLRLSCVASGFTFDNYAIGWFRQAPGKEREGVSCISGNGGVTIYADSVKGRFTISRDNAKNLVYLQMNSLKPEDTAVYYCAATGIRSTWSVYGCSRLAGPYDYWGQGTQVTVSS
notes: bivalent VHH-Fc
[2]
  MN100: 6.25 nM
[6]
  LVNA IC50: 9.42 nM
[7]
  IC50: 6.6 nM
  IC99: 56.9 nM
  Imax %: 59%

B14: NRCoV2-1d VHH-Fc (Fc fusion)
chain: EVQLVESGGGSVQPGGSLRLSCAASGSTLDYYAIGWFRQAPGKEREWVSSVSSSDGNTLYADSVKGRFTISRDNAKNTVYLQMNSLKAEDTAVYVCAADYSMRPFAVGRWHRDYEYWGQGTQVTVSS
notes: bivalent VHH-Fc
[2]
  MN100: 0.25 nM
[6]
  LVNA IC50: 1.94 nM
[7]
  IC50: 5.4 nM
  IC99: 42 nM
  Imax %: 89%
[8]
  SC50: 25 ng/mL
[9]
  SC50: 1.7 ng/mL
[10]
  SC50: 16 ng/mL
[11]
  Limit of detection: 1.4 ng/mL
[12]
  Limit of detection: 0.15 ng/mL
[13]
  Limit of detection: 1.37 ng/mL

B15: NRCoV2-1d VHH (VHH)
VHH: EVQLVESGGGSVQPGGSLRLSCAASGSTLDYYAIGWFRQAPGKEREWVSSVSSSDGNTLYADSVKGRFTISRDNAKNTVYLQMNSLKAEDTAVYVCAADYSMRPFAVGRWHRDYEYWGQGTQVTVSS
[1]
  EC50: 1.1 nM and 1.3 nM
[3]
  IC50: 8.6 nM
  IC99: 40.8 nM
  Imax %: 72%
